The values below are quoted from earlier work in publication PMC6994236.

The target in data set [1] is PSD-95 PDZ3 (Rattus norvegicus) (UniProt P31016). As to the kind of experiment: surface plasmon resonance. (In general: In SPR one partner is held on a chip, and binding of the other changes the refractive index at the surface.)
The target of data set [2] is PSD-95 PDZ1-3 (Rattus norvegicus) (UniProt P31016). Put plainly: surface plasmon resonance.
Chain of PSD-95 PDZ1-3 (Rattus norvegicus) (P31016 61-393): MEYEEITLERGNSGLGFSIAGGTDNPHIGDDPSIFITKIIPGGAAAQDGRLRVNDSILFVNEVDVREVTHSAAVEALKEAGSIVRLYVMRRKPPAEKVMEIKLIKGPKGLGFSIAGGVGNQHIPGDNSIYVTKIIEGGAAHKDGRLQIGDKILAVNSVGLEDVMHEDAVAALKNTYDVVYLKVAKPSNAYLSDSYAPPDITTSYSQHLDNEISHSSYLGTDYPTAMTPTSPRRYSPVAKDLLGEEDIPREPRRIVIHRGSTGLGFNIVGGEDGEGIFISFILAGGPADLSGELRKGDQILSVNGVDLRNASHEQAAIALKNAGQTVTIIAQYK

Chain of PSD-95 PDZ3 (Rattus norvegicus) (P31016 310-396): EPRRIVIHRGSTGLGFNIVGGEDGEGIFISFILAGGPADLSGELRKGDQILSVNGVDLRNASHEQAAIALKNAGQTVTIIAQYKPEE

In general, Kd refers to the concentration at which binding is half-saturated. Take “synGAP lacking first 100 residues (from UniProt Q9QUH6)”: the results for the dissociation constant Kd in data set [1] and in data set [2] were 650 nM and 5 nM, respectively.
